B1: TNXB (parent)
chain: FSEIRETSAKVNWMPPPSRADSFK
B2: TMEM192 (parent)
chain: LWILHLLLECYIQYHHSKIRNRGY

Variants of: B1
Test: protein stability index of a GFP-peptide fusion (GPS, HEK-293T) (PSI 1-6); higher = more stable
Conditions: c terminus: a fixed tail appended
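Note: lentivirally expressed fusions sorted by FACS into six bins by GFP to DsRed ratio, PSI derived from sequencing read proportions per bin multiplied by bin number.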

Variant	protein stability index
WSEIRETSAKVNWMPPPSRADSFK [F1W]	3.6
MSEIRETSAKVNWMPPPSRADSFK [F1M]	4.15
RSEIRETSAKVNWMPPPSRADSFK [F1R]	4.99
HSEIRETSAKVNWMPPPSRADSFK [F1H]	3.94
VSEIRETSAKVNWMPPPSRADSFK [F1V]	4.19
KSEIRETSAKVNWMPPPSRADSFK [F1K]	4.4
GSEIRETSAKVNWMPPPSRADSFK [F1G]	4.22
ISEIRETSAKVNWMPPPSRADSFK [F1I]	3.46
CSEIRETSAKVNWMPPPSRADSFK [F1C]	3.69
PSEIRETSAKVNWMPPPSRADSFK [F1P]	4.76
QSEIRETSAKVNWMPPPSRADSFK [F1Q]	4.48
NSEIRETSAKVNWMPPPSRADSFK [F1N]	4.63
LSEIRETSAKVNWMPPPSRADSFK [F1L]	4.02
DSEIRETSAKVNWMPPPSRADSFK [F1D]	5.04
ASEIRETSAKVNWMPPPSRADSFK [F1A]	4.29
ESEIRETSAKVNWMPPPSRADSFK [F1E]	4.45
TSEIRETSAKVNWMPPPSRADSFK [F1T]	4.07
YSEIRETSAKVNWMPPPSRADSFK [F1Y]	3.98

Variant	protein stability index
SSEIRETSAKVNWMPPPSRADSFK [F1S]	4.48
FGEIRETSAKVNWMPPPSRADSFK [S2G]	2.97
FAEIRETSAKVNWMPPPSRADSFK [S2A]	2.69
FIEIRETSAKVNWMPPPSRADSFK [S2I]	2.17
FREIRETSAKVNWMPPPSRADSFK [S2R]	3.2
FEEIRETSAKVNWMPPPSRADSFK [S2E]	3.98
FFEIRETSAKVNWMPPPSRADSFK [S2F]	2.65
FMEIRETSAKVNWMPPPSRADSFK [S2M]	3.17
FVEIRETSAKVNWMPPPSRADSFK [S2V]	1.9
FQEIRETSAKVNWMPPPSRADSFK [S2Q]	3.97
FWEIRETSAKVNWMPPPSRADSFK [S2W]	2.37
FDEIRETSAKVNWMPPPSRADSFK [S2D]	4.12
FPEIRETSAKVNWMPPPSRADSFK [S2P]	3.65
FTEIRETSAKVNWMPPPSRADSFK [S2T]	2.67
FHEIRETSAKVNWMPPPSRADSFK [S2H]	2.21
FLEIRETSAKVNWMPPPSRADSFK [S2L]	2.97
FKEIRETSAKVNWMPPPSRADSFK [S2K]	3.49
FNEIRETSAKVNWMPPPSRADSFK [S2N]	4.04

Variants of: B2
Test: as above
Conditions: c terminus: a fixed tail appended

Variant	protein stability index
LWILHLLLECYIQYHHSKHRNRGY [I19H]	1.43
LWILHLLLECYIQYHHSKRRNRGY [I19R]	1.96
LWILHLLLECYIQYHHSKSRNRGY [I19S]	1.78
LWILHLLLECYIQYHHSKNRNRGY [I19N]	1.88
LWILHLLLECYIQYHHSKKRNRGY [I19K]	1.31
LWILHLLLECYIQYHHSKARNRGY [I19A]	2.33
LWILHLLLECYIQYHHSKTRNRGY [I19T]	1.94
LWILHLLLECYIQYHHSKWRNRGY [I19W]	1.88
LWILHLLLECYIQYHHSKLRNRGY [I19L]	2.14
LWILHLLLECYIQYHHSKFRNRGY [I19F]	3.16
LWILHLLLECYIQYHHSKPRNRGY [I19P]	2.04
LWILHLLLECYIQYHHSKVRNRGY [I19V]	2.01
LWILHLLLECYIQYHHSKQRNRGY [I19Q]	1.55
LWILHLLLECYIQYHHSKDRNRGY [I19D]	1.73
LWILHLLLECYIQYHHSKGRNRGY [I19G]	2.44
LWILHLLLECYIQYHHSKIRNSGY [R22S]	2.66
LWILHLLLECYIQYHHSKIRNPGY [R22P]	1.67
LWILHLLLECYIQYHHSKIRNWGY [R22W]	3.32
LWILHLLLECYIQYHHSKIRNYGY [R22Y]	1.98
LWILHLLLECYIQYHHSKIRNNGY [R22N]	2.26
LWILHLLLECYIQYHHSKIRNQGY [R22Q]	3.54
LWILHLLLECYIQYHHSKIRNDGY [R22D]	3.49
LWILHLLLECYIQYHHSKIRNIGY [R22I]	2.69
LWILHLLLECYIQYHHSKIRNKGY [R22K]	1.46
LWILHLLLECYIQYHHSKIRNAGY [R22A]	2.18
LWILHLLLECYIQYHHSKIRNLGY [R22L]	2.44

Variant	protein stability index
LWILHLLLECYIQYHHSKIRNFGY [R22F]	2.93
LWILHLLLECYIQYHHSKIRNVGY [R22V]	1.17
LWILHLLLECYIQYHHSKIRNCGY [R22C]	4.22
LWILHLLLECYIQYYHSKIRNRGY [H15Y]	2.86
LWILHLLLECYIQYMHSKIRNRGY [H15M]	2.41
LWILHLLLECYIQYNHSKIRNRGY [H15N]	2.7
LWILHLLLECYIQYGHSKIRNRGY [H15G]	2.37
LWILHLLLECYIQYPHSKIRNRGY [H15P]	2.18
LWILHLLLECYIQYRHSKIRNRGY [H15R]	2.33
LWILHLLLECYIQYTHSKIRNRGY [H15T]	1.25
LWILHLLLECYIQYSHSKIRNRGY [H15S]	2.72
LWILHLLLECYIQYCHSKIRNRGY [H15C]	2.19
LWILHLLLECYIQYLHSKIRNRGY [H15L]	2.14
LWILHLLLECYIQYDHSKIRNRGY [H15D]	1.56
LWILHLLLECYIQYQHSKIRNRGY [H15Q]	2.24
LWILHLLLECYIQYVHSKIRNRGY [H15V]	2.15
LWILHLLLECYIQYHHQKIRNRGY [S17Q]	2.37
LWILHLLLECYIQYHHYKIRNRGY [S17Y]	4.45
LWILHLLLECYIQYHHNKIRNRGY [S17N]	2.6
LWILHLLLECYIQYHHMKIRNRGY [S17M]	1.11
LWILHLLLECYIQYHHCKIRNRGY [S17C]	2.7
LWILHLLLECYIQYHHGKIRNRGY [S17G]	2.28
LWILHLLLECYIQYHHRKIRNRGY [S17R]	3.51
LWILHLLLECYIQYHHDKIRNRGY [S17D]	2.04
LWILHLLLECYIQYHHPKIRNRGY [S17P]	2.26
LWILHLLLECYIQYHHAKIRNRGY [S17A]	2.68

Variant	protein stability index
LWILHLLLECYIQYHHIKIRNRGY [S17I]	2.57
LWILHLLLECYIQYHHWKIRNRGY [S17W]	2.15
LWILHLLLECYIQYHHVKIRNRGY [S17V]	1.59
LWILHLLLECYIQYHHHKIRNRGY [S17H]	2.86
LWILHLLLECYIQYHHTKIRNRGY [S17T]	2.08
LWILHLLLECYIQYHHSKIRNRGH [Y24H]	1.62
LWILHLLLECYIQYHHSKIRNRGP [Y24P]	2.52
LWILHLLLECYIQYHHSKIRNRGQ [Y24Q]	1.57
LWILHLLLECYIQYHHSKIRNRGI [Y24I]	2.54
LWILHLLLECYIQYHHSKIRNRGS [Y24S]	2.3
LWILHLLLECYIQYHHSKIRNRGR [Y24R]	2.31
LWILHLLLECYIQYHHSKIRNRGA [Y24A]	2.18
LWILHLLLECYIQYHHSKIRNRGV [Y24V]	2.69
LWILHLLLECYIQYHHSKIRNRGN [Y24N]	2.44
LWILHLLLECYIQYHHSKIRNRGK [Y24K]	1.31
LWILHLLLECYIQYHHSKIRNRGG [Y24G]	3.91
LWILHLLLECYIQYHHSKIRNRGC [Y24C]	1.79
LWILHLLLECYIQYHHSKIRNRGT [Y24T]	1.12
LWILHLLLECYIQYHHSKIRNRGM [Y24M]	2.28
LWILHLLLECYIQYHHSKIQNRGY [R20Q]	1.87
LWILHLLLECYIQYHHSKILNRGY [R20L]	1.89
LWILHLLLECYIQYHHSKINNRGY [R20N]	2.26
LWILHLLLECYIQYHHSKIANRGY [R20A]	3.18
LWILHLLLECYIQYHHSKIYNRGY [R20Y]	2.69
LWILHLLLECYIQYHHSKIPNRGY [R20P]	3.47
LWILHLLLECYIQYHHSKIDNRGY [R20D]	2.8

Variant	protein stability index
LWILHLLLECYIQYHHSKIMNRGY [R20M]	3.17
LWILHLLLECYIQYHHSKIINRGY [R20I]	3.52
LWILHLLLECYIQYHHSKIWNRGY [R20W]	2.45
LWILHLLLECYIQYHHSKIGNRGY [R20G]	2.05
LWILHLLLECYIQYHHSKISNRGY [R20S]	2.63
LWILHLLLECYIQYHHSKIKNRGY [R20K]	1.97
LWILHLLLECYIQYHHSKIHNRGY [R20H]	2.63
LWILHLLLECYIQYHHSKITNRGY [R20T]	2.38
LWILHLLLECYIQYHGSKIRNRGY [H16G]	2.53
LWILHLLLECYIQYHCSKIRNRGY [H16C]	2.41
LWILHLLLECYIQYHSSKIRNRGY [H16S]	1.05
LWILHLLLECYIQYHPSKIRNRGY [H16P]	2.29
LWILHLLLECYIQYHNSKIRNRGY [H16N]	1.3
LWILHLLLECYIQYHDSKIRNRGY [H16D]	1.47
LWILHLLLECYIQYHVSKIRNRGY [H16V]	2.54
LWILHLLLECYIQYHESKIRNRGY [H16E]	1.91
LWILHLLLECYIQYHQSKIRNRGY [H16Q]	2.43
LWILHLLLECYIQYHRSKIRNRGY [H16R]	1.5
LWILHLLLECYIQYHISKIRNRGY [H16I]	3.68
LWILHLLLECYIQYHWSKIRNRGY [H16W]	2.85
LWILHLLLECYIQYHKSKIRNRGY [H16K]	1.64
LWILHLLLECYIQYHFSKIRNRGY [H16F]	2.36
LWILHLLLECYIQYHLSKIRNRGY [H16L]	1.85
LWILHLLLECYIQYHHSKIRNRCY [G23C]	2.04
LWILHLLLECYIQYHHSKIRNRNY [G23N]	1.79
LWILHLLLECYIQYHHSKIRNRTY [G23T]	2.78

Variant	protein stability index
LWILHLLLECYIQYHHSKIRNRAY [G23A]	2.48
LWILHLLLECYIQYHHSKIRNRYY [G23Y]	1.89
LWILHLLLECYIQYHHSKIRNRFY [G23F]	1.38
LWILHLLLECYIQYHHSKIRNRKY [G23K]	2.54
LWILHLLLECYIQYHHSKIRNRVY [G23V]	3.73
LWILHLLLECYIQYHHSKIRNRWY [G23W]	1.77
LWILHLLLECYIQYHHSKIRNRPY [G23P]	3.17
LWILHLLLECYIQYHHSKIRNRIY [G23I]	2.99
LWILHLLLECYIQYHHSKIRNRQY [G23Q]	2.51
LWILHLLLECYIQYHHSKIRNRRY [G23R]	1.78
LWILHLLLECYIQYHHSKIRNRMY [G23M]	1.87
LWILHLLLECYIQTHHSKIRNRGY [Y14T]	2.49
LWILHLLLECYIQSHHSKIRNRGY [Y14S]	2.47
LWILHLLLECYIQHHHSKIRNRGY [Y14H]	2.31
LWILHLLLECYIQLHHSKIRNRGY [Y14L]	3.2
LWILHLLLECYIQKHHSKIRNRGY [Y14K]	2.01
LWILHLLLECYIQNHHSKIRNRGY [Y14N]	1.53
LWILHLLLECYIQWHHSKIRNRGY [Y14W]	1.1
LWILHLLLECYIQPHHSKIRNRGY [Y14P]	2.67
LWILHLLLECYIQIHHSKIRNRGY [Y14I]	1.79
LWILHLLLECYIQQHHSKIRNRGY [Y14Q]	2
LWILHLLLECYIQRHHSKIRNRGY [Y14R]	2.11
LWILHLLLECYIQVHHSKIRNRGY [Y14V]	2.53
LWILHLLLECYIQYHHSEIRNRGY [K18E]	2.77
LWILHLLLECYIQYHHSMIRNRGY [K18M]	3.16
LWILHLLLECYIQYHHSNIRNRGY [K18N]	3.08

Variant	protein stability index
LWILHLLLECYIQYHHSTIRNRGY [K18T]	2.76
LWILHLLLECYIQYHHSDIRNRGY [K18D]	3.53
LWILHLLLECYIQYHHSSIRNRGY [K18S]	3.8
LWILHLLLECYIQYHHSHIRNRGY [K18H]	4.09
LWILHLLLECYIQYHHSQIRNRGY [K18Q]	2.67
LWILHLLLECYIQYHHSRIRNRGY [K18R]	4.17
LWILHLLLECYIQYHHSGIRNRGY [K18G]	2.69
LWILHLLLECYIQYHHSFIRNRGY [K18F]	2.88
LWILHLLLECYIQYHHSPIRNRGY [K18P]	2.32
LWILHLLLECYIQYHHSKIRSRGY [N21S]	2.7
LWILHLLLECYIQYHHSKIRHRGY [N21H]	2.53
LWILHLLLECYIQYHHSKIRVRGY [N21V]	2.93
LWILHLLLECYIQYHHSKIRKRGY [N21K]	1.98
LWILHLLLECYIQYHHSKIRLRGY [N21L]	2.11
LWILHLLLECYIQYHHSKIRARGY [N21A]	2.86
LWILHLLLECYIQYHHSKIRWRGY [N21W]	2.74
LWILHLLLECYIQYHHSKIRYRGY [N21Y]	2.6
LWILHLLLECYIQYHHSKIRGRGY [N21G]	2.35
LWILHLLLECYIQYHHSKIRPRGY [N21P]	2.81
LWILHLLLECYIQYHHSKIRRRGY [N21R]	3.57
LWILHLLLECYIQYHHSKIRIRGY [N21I]	2.45
LWILHLLLECYIQYHHSKIRFRGY [N21F]	1.97
